Test results published in the supplement of paper PMC10567573.

B1: TFE3 (parent)
chain: FHLGLEDILMEEEEGVVGGLSGGA

Variants of: B1
Test: protein stability index of a GFP-peptide fusion (GPS, HEK-293T) (PSI 1-6); higher = more stable
Conditions: c terminus: a fixed tail appended
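Note: lentivirally expressed fusions sorted by FACS into six bins by GFP to DsRed ratio, PSI derived from sequencing read proportions per bin multiplied by bin number.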

Variant | protein stability index
FHLGLEDCLMEEEEGVVGGLSGGA | 4.03
FHLGLEDDLMEEEEGVVGGLSGGA | 4.59
FHLGLEDELMEEEEGVVGGLSGGA | 4.72
FHLGLEDFLMEEEEGVVGGLSGGA | 3.17
FHLGLEDGLMEEEEGVVGGLSGGA | 4.2
FHLGLEDHLMEEEEGVVGGLSGGA | 4.01
FHLGLEDKLMEEEEGVVGGLSGGA | 4.31
FHLGLEDLLMEEEEGVVGGLSGGA | 3.78
FHLGLEDMLMEEEEGVVGGLSGGA | 3.58
FHLGLEDNLMEEEEGVVGGLSGGA | 4.25
FHLGLEDPLMEEEEGVVGGLSGGA | 4.89
FHLGLEDQLMEEEEGVVGGLSGGA | 4.28
FHLGLEDRLMEEEEGVVGGLSGGA | 3.93
FHLGLEDSLMEEEEGVVGGLSGGA | 4.28
FHLGLEDTLMEEEEGVVGGLSGGA | 3.88
FHLGLEDVLMEEEEGVVGGLSGGA | 4.08
FHLGLEDWLMEEEEGVVGGLSGGA | 3.24
FHLGLEDYLMEEEEGVVGGLSGGA | 3.99
FHLGLEDIAMEEEEGVVGGLSGGA | 4.22
FHLGLEDICMEEEEGVVGGLSGGA | 4.06
FHLGLEDIDMEEEEGVVGGLSGGA | 4
FHLGLEDIEMEEEEGVVGGLSGGA | 4.57
FHLGLEDIFMEEEEGVVGGLSGGA | 3.29
FHLGLEDIGMEEEEGVVGGLSGGA | 4.43

Variant | protein stability index
FHLGLEDIHMEEEEGVVGGLSGGA | 4.08
FHLGLEDIIMEEEEGVVGGLSGGA | 3.7
FHLGLEDIKMEEEEGVVGGLSGGA | 4.17
FHLGLEDIMMEEEEGVVGGLSGGA | 4.1
FHLGLEDINMEEEEGVVGGLSGGA | 4.33
FHLGLEDIPMEEEEGVVGGLSGGA | 4.21
FHLGLEDIQMEEEEGVVGGLSGGA | 4.39
FHLGLEDIRMEEEEGVVGGLSGGA | 4.5
FHLGLEDISMEEEEGVVGGLSGGA | 3.69
FHLGLEDITMEEEEGVVGGLSGGA | 4.37
FHLGLEDIVMEEEEGVVGGLSGGA | 4.11
FHLGLEDIWMEEEEGVVGGLSGGA | 2.66
FHLGLEDIYMEEEEGVVGGLSGGA | 3.87
FHLGLEDILAEEEEGVVGGLSGGA | 4
FHLGLEDILCEEEEGVVGGLSGGA | 3.83
FHLGLEDILDEEEEGVVGGLSGGA | 4.13
FHLGLEDILEEEEEGVVGGLSGGA | 4.27
FHLGLEDILFEEEEGVVGGLSGGA | 3.83
FHLGLEDILGEEEEGVVGGLSGGA | 4.02
FHLGLEDILHEEEEGVVGGLSGGA | 3.58
FHLGLEDILIEEEEGVVGGLSGGA | 3.81
FHLGLEDILKEEEEGVVGGLSGGA | 3.94
FHLGLEDILLEEEEGVVGGLSGGA | 3.44
FHLGLEDILNEEEEGVVGGLSGGA | 3.23

Variant | protein stability index
FHLGLEDILPEEEEGVVGGLSGGA | 4.18
FHLGLEDILQEEEEGVVGGLSGGA | 4.34
FHLGLEDILREEEEGVVGGLSGGA | 3.23
FHLGLEDILSEEEEGVVGGLSGGA | 4.08
FHLGLEDILTEEEEGVVGGLSGGA | 3.88
FHLGLEDILVEEEEGVVGGLSGGA | 3.83
FHLGLEDILWEEEEGVVGGLSGGA | 3.57
FHLGLEDILYEEEEGVVGGLSGGA | 3.62
FHLGLEDILMAEEEGVVGGLSGGA | 3.08
FHLGLEDILMCEEEGVVGGLSGGA | 2.6
FHLGLEDILMDEEEGVVGGLSGGA | 3.66
FHLGLEDILMFEEEGVVGGLSGGA | 2.09
FHLGLEDILMGEEEGVVGGLSGGA | 2.61
FHLGLEDILMHEEEGVVGGLSGGA | 2.73
FHLGLEDILMIEEEGVVGGLSGGA | 2.08
FHLGLEDILMKEEEGVVGGLSGGA | 3.35
FHLGLEDILMLEEEGVVGGLSGGA | 2.2
FHLGLEDILMMEEEGVVGGLSGGA | 1.82
FHLGLEDILMNEEEGVVGGLSGGA | 3.11
FHLGLEDILMPEEEGVVGGLSGGA | 2.7
FHLGLEDILMQEEEGVVGGLSGGA | 2.91
FHLGLEDILMREEEGVVGGLSGGA | 3.33
FHLGLEDILMSEEEGVVGGLSGGA | 2.95
FHLGLEDILMTEEEGVVGGLSGGA | 2.97

Variant | protein stability index
FHLGLEDILMVEEEGVVGGLSGGA | 2.67
FHLGLEDILMWEEEGVVGGLSGGA | 2.57
FHLGLEDILMYEEEGVVGGLSGGA | 2.38
FHLGLEDILMEAEEGVVGGLSGGA | 2.6
FHLGLEDILMECEEGVVGGLSGGA | 2.83
FHLGLEDILMEDEEGVVGGLSGGA | 3.77
FHLGLEDILMEFEEGVVGGLSGGA | 2.14
FHLGLEDILMEGEEGVVGGLSGGA | 3.02
FHLGLEDILMEHEEGVVGGLSGGA | 3.09
FHLGLEDILMEIEEGVVGGLSGGA | 2.51
FHLGLEDILMEKEEGVVGGLSGGA | 3.2
FHLGLEDILMEMEEGVVGGLSGGA | 2.29
FHLGLEDILMENEEGVVGGLSGGA | 3.01
FHLGLEDILMEPEEGVVGGLSGGA | 2.43
FHLGLEDILMEQEEGVVGGLSGGA | 3.47
FHLGLEDILMEREEGVVGGLSGGA | 2.47
FHLGLEDILMESEEGVVGGLSGGA | 3.29
FHLGLEDILMETEEGVVGGLSGGA | 3.72
FHLGLEDILMEVEEGVVGGLSGGA | 1.74
FHLGLEDILMEWEEGVVGGLSGGA | 1.76
FHLGLEDILMEYEEGVVGGLSGGA | 2.63
FHLGLEDILMEEAEGVVGGLSGGA | 2.83
